Results: the supplement of paper PMC9170038

Test system: MS2 coat protein
Assay: apparent KD of MS2 coat protein; designed switch direction (-1 OFF switch, 1 ON switch): -1; higher = weaker reporter binding
Outline: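 Stalled E. coli RNA polymerase transcribed designed RNA switches on Illumina chips, which were then titrated with SNAP-549-labelled MS2 coat protein, doubling from 0.7 or 1.5 nM to 3 µM. Steps lasted from 0.8–1.5 h at the lowest concentration to 10–20 min at the highest. The apparent KD is each design's median over clusters of curve-fitted normalised fluorescence.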

[1] = input ligand: microRNA oligo, concentration not stated
[2] = Eterna round: R95, input ligand: FMN 200 uM
[3] = Eterna round: R95, input ligand: microRNA oligo, concentration not stated
[4] = Eterna round: R95, input ligand: none

Row | Sequence | apparent KD of MS2 coat protein (input ligand: FMN 200 uM) | apparent KD of MS2 coat protein (input ligand: none) | apparent KD of MS2 coat protein [1] | also measured
1 | UAAUUUUUAGUAAGGAUAUCGGUCCCAAGGGACAACGAGAAGGUACAUGAGGAUCACCCAUGUUACGAAAGAAU [Mod of Zala 10 - Jieux - Brourd's Mod of Exclusion 4] (Eterna round: R97, puzzle: Brourd's mod of Exclusion 4) | 17.6 nM | 18 nM | – | –
2 | UACAAGCUGCUCUAAUAGAACAUGAGGAUCACCCAUGUUGCUAAACAUGAAAGAAUUGGCUCCGCAUGGAUUGCUCG [Eternabot (L2) Solution 9] (Eterna round: R97, puzzle: Sensor, turn-off variant 1) | 31.9 nM | 33.6 nM | – | –
3 | UACAUGAGGAUCACCCAUGUUUUGUCGUGUAUGGUACCCAUCUAGGAUAUCGUGUUAUUUAACCACGAGAAGGAGAGUAUCAAU [MOD4 Solution 21 by JMF] (Eterna round: R96, puzzle: Exclusion NG 3) | 22.4 nM | 21.8 nM | 13 nM | –
4 | UACAUGAGGAUCACCCAUGUUUUGUCGUGUAUGGUAUUUAUCUAGGAUAUCAAAUUAUUUAUUUAUGAGAAGGAGAAUAUUAAU [JMF's solution 9] (Eterna round: R96, puzzle: Exclusion NG 3) | 37.9 nM | 44.6 nM | 26.5 nM | –
5 | UACAUGAGGAUCACCCAUGUUUUGUCGUGUAUGGUAUUUAUCUAGGAUAUCAAGUUAGUUAUUUAUGAGAAGGAGAAUAUUAAU [JMF's solution 29] (Eterna round: R96, puzzle: Exclusion NG 3) | 42.5 nM | 39.4 nM | 30.7 nM | –
6 | UACAUGAGGAUCACCCAUGUUUUGUCGUGUAUGGUAUUUAUCUAGGAUAUCAAGUUAUUUAGUUAUGAGAAGGAGAAUAUUAAU [JMF's solution 35] (Eterna round: R96, puzzle: Exclusion NG 3) | 31.5 nM | 40.4 nM | 31.6 nM | –
7 | UACAUGAGGAUCACCCAUGUUUUGUCGUGUAUGGUAUUUAUCUAGGAUAUCAAUGUAUAUAUUUAUGAGAAGGAGAAUAUUAAU [JMF's solution 42] (Eterna round: R96, puzzle: Exclusion NG 3) | 37.4 nM | 34 nM | 25.1 nM | –
8 | UACAUGAGGAUCACCCAUGUUUUGUCGUGUAUGGUAUUUAUCUAGGAUAUCAAUGUAUUUAUGUAUGAGAAGGAGAAUAUUAAU [JMF's solution 47] (Eterna round: R96, puzzle: Exclusion NG 3) | – | – | 32.3 nM | –
9 | UACAUGAGGAUCACCCAUGUUUUGUCGUGUAUGGUAUUUAUCUAGGAUAUCAUAUUAUUUAUUUAUGAGAAGGAGAAUAUUAAU [JMF's solution 95] (Eterna round: R96, puzzle: Exclusion NG 3) | 45.8 nM | 26.9 nM | 27.1 nM | –
10 | UACAUGAGGAUCACCCAUGUUUUGUCGUGUAUGGUAUUUAUCUAGGAUAUCAUUUUAUUUGGUUAUGAGAAGGAGAAUAUUAAU [JMF's solution 92] (Eterna round: R96, puzzle: Exclusion NG 3) | 24.1 nM | 30.5 nM | 22.7 nM | –
11 | UACAUGAGGAUCACCCAUGUUUUGUCGUGUUUGGUACCCGUUUAGGAUAUCGUGUUAUUGGACCGCGAGAAGGAGAGUAUCUUU [Excl-NG3-LRO07] (Eterna round: R96, puzzle: Exclusion NG 3) | 31.8 nM | 33.3 nM | 25.3 nM | –
12 | UACCGGCGGACCGAAGCUUUUUGCUUGUCUUAUACUACGACAUGAGGAUCACCCAUGUGGUGGUGGUCCGUUGUAGU [JL ViennaUCT Bitein mod 3] (puzzle: Sensor v3, turn-off variant 2) | – | – | – | apparent KD of MS2 coat protein [2]: 48.3 nM; apparent KD of MS2 coat protein [3]: 13.1 nM; apparent KD of MS2 coat protein [4]: 52.1 nM
13 | UACCUGAGGCUUUGCUUUAGGCUUACAUGAGGAUCACCCAUGUAGGAUAUGGUAGGCUUUGCUUACCAGAAGGACAUGGUAAUU [JL ENG3 1.07] (Eterna round: R96, puzzle: Exclusion NG 3) | 90.9 nM | 64.6 nM | 59.9 nM | –
14 | UACGGGUCAGGAUAUGCGAGGGAGUGGGAAAUAGGAAGGUAGCAGAAGGGACAUGAGGAUCACCCAUGUAAGGA [JR_Exclu4_Sub0100] (puzzle: Exclusion 4) | – | – | – | apparent KD of MS2 coat protein [2]: 38.5 nM; apparent KD of MS2 coat protein [3]: 31.2 nM; apparent KD of MS2 coat protein [4]: 34.6 nM
15 | UACUAAAAGGAGGAUAUCGUAUCGGAAACGAUACGAGAAGGCUUAACAUGAGGAUCACCCAUGUUCUUCAAUAU [Mat - Exclusion 6 - Eli Mod - D92] (puzzle: Exclusion 6) | – | – | – | apparent KD of MS2 coat protein [2]: 18.2 nM; apparent KD of MS2 coat protein [3]: 16 nM; apparent KD of MS2 coat protein [4]: 14.8 nM
16 | UACUACGCAGGAUAUACAUGAGGAUCACCCAUGUGUCUGCGAUAGGCACGUGAAAUCCGUAGAAGGGUGUAGAU [Exclusion 3 - Oddities v.2] (puzzle: Exclusion 3) | – | – | – | apparent KD of MS2 coat protein [3]: 35.9 nM
17 | UACUACGCAGGAUAUACAUGAGGAUCACCCAUGUGUCUGCGAUAGGCACGUGAUAUCCGUAGAAGGGUGUAGAU [Exclusion 3 - Oddities v.1] (puzzle: Exclusion 3) | – | – | – | apparent KD of MS2 coat protein [3]: 30.7 nM

Row | Sequence | apparent KD of MS2 coat protein (input ligand: FMN 200 uM) | apparent KD of MS2 coat protein (input ligand: none) | apparent KD of MS2 coat protein [1] | also measured
18 | UACUUAUGAGUCAGGAUAUGUGAGGCGGAAGCGAUACAGAAGGGACAUGAGGAUCACCCAUGUUGGGUUCCUGU [Eternabot (Original) Solution 32] (Eterna round: R97, puzzle: Brourd's mod of Exclusion 4) | 526 nM | 83.5 nM | – | –
19 | UAGACCGAUGUUAGGAUAUCUGGUCGAGAAAGAAAAGAGAAGGAACAUGAGGAUCACCCAUGUACCCGGGUAAC [Laisbebi] (puzzle: Brourd's mod of Exclusion 4) | – | – | – | apparent KD of MS2 coat protein [3]: 16.7 nM
20 | UAGAUGGGAGGAUAUACGUAGAUACAGAUUCGUGUAGUGCUACAUGAGGAUCACCCAUGUAGAAGGCCCGUCUU [JL-ex2-2.23 Mayanne mod] (puzzle: Exclusion 2) | – | – | – | apparent KD of MS2 coat protein [3]: 13.1 nM
21 | UAGCAUUGCCAAAGGUAGUGCAUUACAUGAGGAUCACCCAUGUAGGAUAUGGUAGGCAAAGCUUACCAGAAGGACAUGAUAAUU [Mat - Exclusion NG 3 - Mod of JL - D16] (Eterna round: R96, puzzle: Exclusion NG 3) | 104 nM | 47.8 nM | 36.5 nM | –
22 | UAGGAGUCAGGAUAUGCGAGAGAUGGAAGUAAGGGAUGAGAGCAGAAGGGACAUGAGGAUCACCCAUGUAAGGA [JR_Exclu4_Sub091] (puzzle: Exclusion 4) | – | – | – | apparent KD of MS2 coat protein [3]: 37.2 nM
23 | UAGGUGUAGUUAGGAUAUCGUUGCGAUUAGCUACGAGAAGGAACACAUGAGGAUCACCCAUGUCUACUCAAGAAACGAAAGGAA [6th something] (Eterna round: R96, puzzle: Exclusion NG 1) | 29 nM | 24.9 nM | 22.1 nM | –
24 | UAGUUAAUCACAGGAUAUCGCCUCUUAUUACAUGAGGAUCACCCAUGUUUAGUUAGUUACAUGUUCGAGAAGGGUGUUGUAGUU [JR_ExcNG2_Sub042] (Eterna round: R96, puzzle: Exclusion NG 2) | 714 nM | 579 nM | 408 nM | –
25 | UAGUUAUUCACAGGAUAUCGCCUCUUAUUACAUGAGGAUCACCCAUGUUUAGUUAGUUACAUGUUCGAGAAGGGUGUAGUUGUU [JR_ExcNG2_Sub043] (Eterna round: R96, puzzle: Exclusion NG 2) | – | – | 290 nM | –
26 | UAUACACAUGAGGAUCACCCAUGUGAGGAUAUGUACAACAACAAGACGGAAAAAAAAUACAGAAGGCACAAAUA [JR_Exclusion1_Sub028] (puzzle: Exclusion 1) | – | – | – | apparent KD of MS2 coat protein [2]: 22.7 nM; apparent KD of MS2 coat protein [3]: 25.7 nM; apparent KD of MS2 coat protein [4]: 32.4 nM
27 | UAUACUAGAUAGGAUAUACUAUAUAUAUUAUUCGUAGAAGGAUCUACAUGAGGAUCACCCAUGUUAACAGCAGU [JR_E6_Sub006] (puzzle: Exclusion 6) | – | – | – | apparent KD of MS2 coat protein [3]: 37.2 nM
28 | UAUAUAUAGUAAGGAUAUGUAAUAAUUUUAUAAACAGAAGGUACUGACAUGAGGAUCACCCAUGUUUUAGUGUGGGCAUGUAGA [JMF's solution 30] (Eterna round: R96, puzzle: Exclusion NG 1) | – | – | 73.2 nM | –
29 | UAUAUAUAGUAAGGAUAUGUAAUUCUUUUAUAAACAGAAGGUACUGACAUGAGGAUCACCCAUGUUUUAGUGUGGGCAUGUAGA [JMF's solution 34] (Eterna round: R96, puzzle: Exclusion NG 1) | – | – | 53.1 nM | –
30 | UAUAUAUAGUAAGGAUAUGUAUAUAAUUUAUAAACAGAAGGUACUGACAUGAGGAUCACCCAUGUUUUAGUGUGGGCAUGUAGA [JMF's solution 55] (Eterna round: R96, puzzle: Exclusion NG 1) | – | – | 64.4 nM | –
31 | UAUAUAUAGUAAGGAUAUGUAUUAAUUUAAUAAACAGAAGGUACUGACAUGAGGAUCACCCAUGUUUUAGUGUGGGCAUGUAGA [JMF's solution 83] (Eterna round: R96, puzzle: Exclusion NG 1) | – | – | 64.3 nM | –
32 | UAUAUAUAGUAAGGAUAUGUAUUAAUUUGAUAAACAGAAGGUACUGACAUGAGGAUCACCCAUGUUUUAGUGUGGGCAUGUAGA [JMF's solution 84] (Eterna round: R96, puzzle: Exclusion NG 1) | – | – | 75.6 nM | –
33 | UAUAUGUGAGGAUAUCCUUUAUUAAUUAUUAUAUUAUAUAUGGAGAAGGCACAUGAGGAUCACCCAUGUUAUAU [lam1] (Eterna round: R97, puzzle: Exclusion 4) | 72.8 nM | 42.1 nM | – | –
34 | UAUUAAACAAGCAGAUCCCACAUGAGGAUCACCCAUGUGCUCGUCUUAUAAGGUACUGUGACGAUAGUCACGGUACC [Mat - Sensor, turn-off var - Eli Mod - D62] (Eterna round: R97, puzzle: Sensor, turn-off variant 1) | 49 nM | 54.5 nM | – | –
